The values below come from patent publication US20180155451A1 (published 2018).

Experiment [1] has as its target T1, FcγRIa extracellular domain with C-terminal His tag (human, UniProt P12314 16-292).
T1 construct: extracellular domain; Soluble receptor expressed in FreeStyle293 cells and used as analyte in Biacore; also called FcgRI; 1a; not shown: His tag at the C terminus
Nature of the experiment: SPR Biacore, relative binding amount. In general terms: Surface plasmon resonance follows binding to a sensor surface in real time, without labels.
T1 sequence (P12314 16-292): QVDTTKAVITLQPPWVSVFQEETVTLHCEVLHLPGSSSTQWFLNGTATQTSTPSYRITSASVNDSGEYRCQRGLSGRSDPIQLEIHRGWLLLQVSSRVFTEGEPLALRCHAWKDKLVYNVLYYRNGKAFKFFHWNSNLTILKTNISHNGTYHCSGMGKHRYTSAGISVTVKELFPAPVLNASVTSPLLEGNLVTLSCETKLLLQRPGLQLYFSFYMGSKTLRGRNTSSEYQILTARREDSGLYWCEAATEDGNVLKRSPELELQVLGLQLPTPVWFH

Experiment [2] deals with T2, FcγRIIb extracellular domain with C-terminal His tag (human, UniProt P31994 43-217).
T2 construct: extracellular domain; Soluble receptor expressed in FreeStyle293 cells and used as analyte in Biacore; also called FcgRIIb; 2b; not shown: His tag at the C terminus
T2 sequence (looked up): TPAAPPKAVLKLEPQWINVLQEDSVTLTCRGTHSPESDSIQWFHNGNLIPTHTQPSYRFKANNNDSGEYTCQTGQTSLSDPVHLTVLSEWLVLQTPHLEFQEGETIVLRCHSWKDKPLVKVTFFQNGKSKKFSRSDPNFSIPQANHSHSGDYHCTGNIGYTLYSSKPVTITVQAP
Nature of the experiment: SPR Biacore, relative binding amount.

The target of experiment [3] is T1, FcγRIa extracellular domain with …. Nature of the experiment: SPR Biacore; relative binding to FcγRIa divided by that to FcγRIIb.
For experiment [4], the target named is T3, FcγRIa extracellular domain with C-terminal His tag (human, UniProt P12314 16-292).
T3 construct: extracellular domain; also called FcgRI; CD64; not shown: His tag at the C terminus
The experiment can be described thus: SPR Biacore, relative FcγRIa binding vs GpH7-A5/GpH7-B3/GpL16-k0.
T3 sequence (P12314 16-292): as the sequence (P12314 16-292) above

Experiment [5] concerns the target T3, FcγRIa extracellular domain with …. The experiment can be described thus: SPR Biacore, relative FcγRIa binding vs GpH7-B3/GpL16-k0.

B1: heterodimerized antibody GpH7-A5/GpH7-B3 variant Y296_05P/GpL16-k0 (antibody, human IgG1, kappa)
heavy 1: not shown
heavy 2: not shown
light: DIVMTQSPLSLPVTPGEPASISCQASESLVHSNRNTYLHWYLQKPGQSPQLLIYKVSNRFSGVPDRFSGSGSGTDFTLKISRVEAEDVGVYYCSQNTHVPPTFGQGTKVEIERTVAAPSVFIFPPSDEQLKSGTASVVCLLNNFYPREAKVQWKVDNALQSGNSQESVTEQDSKDSTYSLSSTLTLSKADYEKHKVYACEVTHQGLSSPVTKSFNRGEC
notes: Substitution in only one H chain (GpH7-B3 side); also called He Ab
With B1, the He/Con_1a in experiment [1] is 95.6 % of GpH7-A5/GpH7-B3/GpL16-k0 (=100). The He/Con_2b in experiment [2] was 36.6 % of GpH7-A5/GpH7-B3/GpL16-k0 (=100). The “Ia/IIb He_1a/2b” value in experiment [3] was 2.61 ratio of He/Con_1a to He/Con_2b.

B2: GpH7-A5/GpH7-B3 variant Q295_08L/GpL16-k0 (antibody, human IgG1, kappa)
heavy 1: not shown
heavy 2: not shown
light: B1 light
notes: mutation in one H chain only; also called He Ab Q295_08L; Q295L
Regarding B2, the He/Con_1a in experiment [4] is 105 % of HeCon Ab (=100).

B3: heterodimerized antibody GpH7-A5/GpH7-B3 variant Y296_13S/GpL16-k0 (antibody, human IgG1, kappa)
heavy 1: not shown
heavy 2: not shown
light: B1 light
notes: as for B1
B3: the He/Con_1a in experiment [1] was 105 % of GpH7-A5/GpH7-B3/GpL16-k0 (=100). For the same molecule, the He/Con_2b in experiment [2] was 86.3 % of GpH7-A5/GpH7-B3/GpL16-k0 (=100). Moreover, the “Ia/IIb He_1a/2b” value in experiment [3] is 1.22 ratio of He/Con_1a to He/Con_2b.

B4: GpH7-A5/GpH7-B3 variant Q295_03V/GpL16-k0 (antibody, human IgG1, kappa)
heavy 1: not shown
heavy 2: not shown
light: B1 light
notes: mutation in one H chain only; also called He Ab Q295_03V; Q295V
Regarding B4, the He/Con_1a in experiment [4] was 104 % of HeCon Ab (=100).

B5: GpH7-B3 variant Q295_14T/GpL16-k0 (antibody, human IgG1, kappa)
heavy: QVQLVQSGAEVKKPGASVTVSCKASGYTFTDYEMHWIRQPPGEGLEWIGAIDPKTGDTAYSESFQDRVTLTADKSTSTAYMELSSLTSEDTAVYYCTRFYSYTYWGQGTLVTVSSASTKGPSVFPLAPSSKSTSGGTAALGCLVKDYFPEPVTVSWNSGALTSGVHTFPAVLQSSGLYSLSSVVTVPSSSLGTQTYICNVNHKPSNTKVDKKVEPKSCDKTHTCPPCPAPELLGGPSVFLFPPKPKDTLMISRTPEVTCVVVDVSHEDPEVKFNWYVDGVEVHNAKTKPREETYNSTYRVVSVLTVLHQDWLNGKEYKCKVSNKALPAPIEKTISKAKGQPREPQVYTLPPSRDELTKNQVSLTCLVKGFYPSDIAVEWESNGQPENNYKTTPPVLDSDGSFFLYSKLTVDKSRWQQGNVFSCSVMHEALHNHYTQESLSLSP
light: B1 light
notes: mutation in both H chains; also called Ho Ab Q295_14T; Q295T
Consider B5, for which, in experiment [5], the Ho/Con_1a was 102 % of HoCon Ab (=100).

B6: GpH7-A5/GpH7-B3 variant Q295_11K/GpL16-k0 (antibody, human IgG1, kappa)
heavy 1: not shown
heavy 2: not shown
light: B1 light
notes: mutation in one H chain only; also called He Ab Q295_11K; Q295K
Consider B6, for which, in experiment [4], the He/Con_1a was 101 % of HeCon Ab (=100).

B7: GpH7-B3 variant Q295_04F/GpL16-k0 (antibody, human IgG1, kappa)
heavy: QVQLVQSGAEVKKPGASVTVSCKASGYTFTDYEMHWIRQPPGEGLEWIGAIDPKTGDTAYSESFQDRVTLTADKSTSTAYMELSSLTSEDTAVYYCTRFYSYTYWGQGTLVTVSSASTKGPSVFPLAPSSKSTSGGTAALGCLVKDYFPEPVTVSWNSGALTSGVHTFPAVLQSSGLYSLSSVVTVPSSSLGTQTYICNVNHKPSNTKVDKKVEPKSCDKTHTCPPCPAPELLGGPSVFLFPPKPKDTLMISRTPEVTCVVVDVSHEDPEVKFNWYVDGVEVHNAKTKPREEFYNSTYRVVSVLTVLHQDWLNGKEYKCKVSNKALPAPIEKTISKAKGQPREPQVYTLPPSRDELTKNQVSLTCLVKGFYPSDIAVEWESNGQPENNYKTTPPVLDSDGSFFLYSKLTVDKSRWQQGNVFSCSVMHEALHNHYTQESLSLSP
light: B1 light
notes: mutation in both H chains; also called Ho Ab Q295_04F; Q295F
Turning to B7, the Ho/Con_1a in experiment [5] was 100 % of HoCon Ab (=100).

B8: GpH7-A5/GpH7-B3 variant Q295_16H/GpL16-k0 (antibody, human IgG1, kappa)
heavy 1: not shown
heavy 2: not shown
light: B1 light
notes: mutation in one H chain only; also called He Ab Q295_16H; Q295H
For the molecule B8, in experiment [4], the He/Con_1a was 102 % of HeCon Ab (=100).

B9: GpH7-B3 variant Q295_08L/GpL16-k0 (antibody, human IgG1, kappa)
heavy: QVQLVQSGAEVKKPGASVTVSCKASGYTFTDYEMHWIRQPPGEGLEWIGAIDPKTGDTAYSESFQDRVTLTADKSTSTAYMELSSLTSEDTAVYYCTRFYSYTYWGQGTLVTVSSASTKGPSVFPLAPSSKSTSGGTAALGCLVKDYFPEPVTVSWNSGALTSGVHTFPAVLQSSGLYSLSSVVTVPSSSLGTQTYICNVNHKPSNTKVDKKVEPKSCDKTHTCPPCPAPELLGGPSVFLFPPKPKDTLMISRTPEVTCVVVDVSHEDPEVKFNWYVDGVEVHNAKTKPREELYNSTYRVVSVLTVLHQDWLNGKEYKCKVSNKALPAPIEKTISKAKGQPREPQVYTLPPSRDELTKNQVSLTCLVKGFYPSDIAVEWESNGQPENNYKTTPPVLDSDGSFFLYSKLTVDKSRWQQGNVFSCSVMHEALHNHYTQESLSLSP
light: B1 light
notes: mutation in both H chains; also called Ho Ab Q295_08L; Q295L
In the case of B9, the Ho/Con_1a in experiment [5] is 103 % of HoCon Ab (=100).

B10: heterodimerized antibody GpH7-A5/GpH7-B3 variant Y296_12R/GpL16-k0 (antibody, human IgG1, kappa)
heavy 1: not shown
heavy 2: not shown
light: B1 light
notes: as for B1
As to B10, the He/Con_1a in experiment [1] was 106 % of GpH7-A5/GpH7-B3/GpL16-k0 (=100). The He/Con_2b in experiment [2] was 79.5 % of GpH7-A5/GpH7-B3/GpL16-k0 (=100). In experiment [3], the “Ia/IIb He_1a/2b” value is 1.34 ratio of He/Con_1a to He/Con_2b.

B11: GpH7-B3 variant S239_01G/GpL16-k0 (antibody, human IgG1, kappa)
heavy: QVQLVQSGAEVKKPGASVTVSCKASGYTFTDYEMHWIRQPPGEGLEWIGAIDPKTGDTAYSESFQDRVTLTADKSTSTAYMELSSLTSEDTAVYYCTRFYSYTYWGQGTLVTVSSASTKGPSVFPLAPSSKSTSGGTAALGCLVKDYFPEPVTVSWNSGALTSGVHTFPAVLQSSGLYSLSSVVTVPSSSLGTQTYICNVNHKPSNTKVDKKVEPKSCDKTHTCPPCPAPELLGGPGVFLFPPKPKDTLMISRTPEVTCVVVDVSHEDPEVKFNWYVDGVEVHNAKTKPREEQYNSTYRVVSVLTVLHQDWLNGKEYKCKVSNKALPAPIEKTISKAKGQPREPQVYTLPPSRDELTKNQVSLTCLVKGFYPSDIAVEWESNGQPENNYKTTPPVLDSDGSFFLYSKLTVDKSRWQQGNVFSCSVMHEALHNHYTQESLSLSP
light: B1 light
notes: mutation in both H chains; also called Ho Ab S239_01G; S239G
As for B11, in experiment [5], the Ho/Con_1a is 101 % of HoCon Ab (=100).

B12: GpH7-B3 variant P329_01G/GpL16-k0 (antibody, human IgG1, kappa)
heavy: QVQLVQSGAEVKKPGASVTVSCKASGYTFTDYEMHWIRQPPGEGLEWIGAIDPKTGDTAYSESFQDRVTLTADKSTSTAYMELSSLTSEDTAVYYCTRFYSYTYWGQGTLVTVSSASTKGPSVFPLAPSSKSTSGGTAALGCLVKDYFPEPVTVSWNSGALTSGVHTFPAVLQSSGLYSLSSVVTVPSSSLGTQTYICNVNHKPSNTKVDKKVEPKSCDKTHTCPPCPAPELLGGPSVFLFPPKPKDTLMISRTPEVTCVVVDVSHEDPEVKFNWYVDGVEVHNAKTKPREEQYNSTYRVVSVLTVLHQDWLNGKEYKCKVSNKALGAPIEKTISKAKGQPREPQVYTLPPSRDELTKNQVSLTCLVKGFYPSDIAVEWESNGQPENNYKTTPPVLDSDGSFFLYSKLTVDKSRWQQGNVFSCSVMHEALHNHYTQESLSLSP
light: B1 light
notes: mutation in both H chains; also called Ho Ab P329_01G; P329G
On to B12, for which the Ho/Con_1a in experiment [5] is 89.5 % of HoCon Ab (=100).

B13: GpH7-B3 variant P271_16H/GpL16-k0 (antibody, human IgG1, kappa)
heavy: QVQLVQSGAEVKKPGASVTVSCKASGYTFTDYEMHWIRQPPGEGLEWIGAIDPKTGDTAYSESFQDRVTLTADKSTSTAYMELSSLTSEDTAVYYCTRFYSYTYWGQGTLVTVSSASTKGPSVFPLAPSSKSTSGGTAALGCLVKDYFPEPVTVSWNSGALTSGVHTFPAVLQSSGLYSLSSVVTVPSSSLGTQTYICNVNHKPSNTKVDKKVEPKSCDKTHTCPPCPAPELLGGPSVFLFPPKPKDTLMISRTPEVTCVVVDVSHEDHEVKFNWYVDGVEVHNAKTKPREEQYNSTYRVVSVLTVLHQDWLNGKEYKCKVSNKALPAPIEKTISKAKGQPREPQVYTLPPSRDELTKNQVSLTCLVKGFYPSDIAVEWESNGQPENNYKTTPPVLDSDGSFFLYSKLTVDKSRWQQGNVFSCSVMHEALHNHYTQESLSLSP
light: B1 light
notes: mutation in both H chains; also called Ho Ab P271_16H; P271H
On to B13, for which, in experiment [5], the Ho/Con_1a was 99.4 % of HoCon Ab (=100).

B14: GpH7-B3 variant Q295_16H/GpL16-k0 (antibody, human IgG1, kappa)
heavy: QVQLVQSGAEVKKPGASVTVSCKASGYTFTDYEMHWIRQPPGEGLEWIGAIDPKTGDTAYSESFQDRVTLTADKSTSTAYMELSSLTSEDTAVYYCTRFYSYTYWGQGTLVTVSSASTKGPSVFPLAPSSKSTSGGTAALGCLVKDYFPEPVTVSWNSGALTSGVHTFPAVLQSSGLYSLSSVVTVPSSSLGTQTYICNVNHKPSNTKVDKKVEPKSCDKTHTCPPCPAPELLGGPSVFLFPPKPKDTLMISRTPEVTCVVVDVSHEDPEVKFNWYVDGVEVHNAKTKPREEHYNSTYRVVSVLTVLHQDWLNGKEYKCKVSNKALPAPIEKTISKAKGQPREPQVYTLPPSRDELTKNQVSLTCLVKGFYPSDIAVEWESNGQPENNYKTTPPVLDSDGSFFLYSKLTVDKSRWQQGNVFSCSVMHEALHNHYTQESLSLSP
light: B1 light
notes: mutation in both H chains; also called Ho Ab Q295_16H; Q295H
As for B14, the Ho/Con_1a in experiment [5] is 99.1 % of HoCon Ab (=100).

B15: GpH7-A5/GpH7-B3 variant P271_14T/GpL16-k0 (antibody, human IgG1, kappa)
heavy 1: not shown
heavy 2: not shown
light: B1 light
notes: mutation in one H chain only; also called He Ab P271_14T; P271T
Turning to B15, in experiment [4], the He/Con_1a is 102 % of HeCon Ab (=100).

B16: GpH7-A5/GpH7-B3 variant Q295_15Y/GpL16-k0 (antibody, human IgG1, kappa)
heavy 1: not shown
heavy 2: not shown
light: B1 light
notes: mutation in one H chain only; also called He Ab Q295_15Y; Q295Y
For the molecule B16, in experiment [4], the He/Con_1a is 102 % of HeCon Ab (=100).

B17: GpH7-A5/GpH7-B3 variant Q295_13S/GpL16-k0 (antibody, human IgG1, kappa)
heavy 1: not shown
heavy 2: not shown
light: B1 light
notes: mutation in one H chain only; also called He Ab Q295_13S; Q295S
Consider B17, for which the He/Con_1a in experiment [4] is 102 % of HeCon Ab (=100).

B18: GpH7-A5/GpH7-B3 variant P329_02A/GpL16-k0 (antibody, human IgG1, kappa)
heavy 1: not shown
heavy 2: not shown
light: B1 light
notes: mutation in one H chain only; also called He Ab P329_02A; P329A
For the molecule B18, the He/Con_1a in experiment [4] is 102 % of HeCon Ab (=100).

B19: GpH7-A5/GpH7-B3 variant P329_01G/GpL16-k0 (antibody, human IgG1, kappa)
heavy 1: not shown
heavy 2: not shown
light: B1 light
notes: mutation in one H chain only; also called He Ab P329_01G; P329G
B19: the He/Con_1a in experiment [4] is 101 % of HeCon Ab (=100).

B20: GpH7-B3 variant Q295_13S/GpL16-k0 (antibody, human IgG1, kappa)
heavy: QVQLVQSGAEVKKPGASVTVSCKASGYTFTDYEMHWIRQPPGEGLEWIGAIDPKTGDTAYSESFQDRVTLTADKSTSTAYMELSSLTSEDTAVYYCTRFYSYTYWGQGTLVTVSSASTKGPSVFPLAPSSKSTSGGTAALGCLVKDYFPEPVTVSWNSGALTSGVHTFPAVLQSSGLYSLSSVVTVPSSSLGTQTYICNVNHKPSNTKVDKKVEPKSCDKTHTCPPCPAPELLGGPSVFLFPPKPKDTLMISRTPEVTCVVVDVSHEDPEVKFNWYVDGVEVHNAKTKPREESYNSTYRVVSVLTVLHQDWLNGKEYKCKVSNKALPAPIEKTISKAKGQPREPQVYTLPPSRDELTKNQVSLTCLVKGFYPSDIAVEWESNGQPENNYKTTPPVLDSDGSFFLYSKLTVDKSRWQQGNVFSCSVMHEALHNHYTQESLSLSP
light: B1 light
notes: mutation in both H chains; also called Ho Ab Q295_13S; Q295S
For the molecule B20, the Ho/Con_1a in experiment [5] was 101 % of HoCon Ab (=100).

B21: GpH7-A5/GpH7-B3 variant Q295_14T/GpL16-k0 (antibody, human IgG1, kappa)
heavy 1: not shown
heavy 2: not shown
light: B1 light
notes: mutation in one H chain only; also called He Ab Q295_14T; Q295T
For B21, in experiment [4], the He/Con_1a is 103 % of HeCon Ab (=100).
